# Data reported in patent US20250264455A1 (HELMHOLTZ ZENTRUM M NCHEN DEUTSCHES FORSCHUNGSZENTRUM F R …, published 2025).
# How the values were obtained:
# [1] = target: T1, QtEnc-SpyTag(003) (Bacillus thermotolerans (Quasibacillus …, UniProt A0A0F5HPP7 1-282)); experiment: TEM, CN-PAGE shift and Western blot after co-expression in HEK cells (SpyTag003/SpyCatcher003 isopeptide)
# T1 construct: Q. thermotolerans encapsulin shell monomer with C-terminal SpyTag003; T=4 shell of 240 subunits; expressed in HEK cells; also called QtEnc decorated with SpyTags
# [2] = target: T1, QtEnc-SpyTag(003); experiment: TEM and CN-PAGE after co-expression in HEK cells (SpyTag003/SpyCatcher003 isopeptide)
# [3] = target: T2, LifeAct-emFPv4; experiment: Clear Native PAGE of co-expressing HEK293T lysate
# T2 construct: also called emFPv4 hub
# [4] = target: the molecule itself; experiment: native 12% Tris-Glycine gel of purified protein with BODIPY FL C16
binder,measurement,setting,value
"B-FABP-SpyCatcher003 (other, also called B-FABP fused via SpyCatcher003) MVEAFCATWKLTNSQNFDEYMKALGVGFATRQVGNVTKPTVIISQEGDKVVIRTLSTFKNTEISFQLGEEFDETTADDRNCKSVVSLDGDKLVHIQKWDGKETNFVREIKDGKMVMTLTFGDVVAVRHYEKAPPPPRTGPPPPRVTTLSGLSGEQGPSGDMTTEEDSATHIKFSKRDEDGRELAGATMELRDSSGKTISTWISDGHVKDFYLYPGKYTFVETAAPDGYEVATPIEFTVNEDGQVTVDGEATEGDAHT",binding result,[1],binds
"BM3h-SpyCatcher003 (other, Heme domain of cytochrome P450 BM3 fused to SpyCatcher003; also called SpyCatcher-Bm3h) MTIKEMPQPKTFGELKNLPLLNTDKPVQALMKIADELGEIFKFEAPGRVTRYLSSQRLIKEACDESRFDKNLSQALKFVRDFAGDGLFTSWTHEKNWKKAHNILLPSFSQQAMKGYHAMMVDIAVQLVQKWERLNADEHIEVPEDMTRLTLDTIGLCGFNYRFNSFYRDQPHPFITSMVRALDEAMNKLQRANPDDPAYDENKRQFQEDIKVMNDLVDKIIADRKASGEQSDDLLTHMLNGKDPETGEPLDDENIRYQIITFLIAGHETTSGLLSFALYFLVKNPHVLQKAAEEAARVLVDPVPSYKQVKQLKYVGMVLNEALRLWPTAPAFSLYAKEDTVLGGEYPLEKGDELMVLIPQLHRDKTIWGDDVEEFRPERFENPSAIPQHAFKPFGNGQRACIGQQFALHEATLVLGMMLKHFDFEDHTNYELDIKETLTLKPEGFVVKAKSKKIPLPPPPRTGPPPPRVTTLSGLSGEQGPSGDMTTEEDSATHIKFSKRDEDGRELAGATMELRDSSGKTISTWISDGHVKDFYLYPGKYTFVETAAPDGYEVATPIEFTVNEDGQVTVDGEATEGDAHT",binding result,[2],binds
"BFabp-αMoon-Tag (other, also called B-Fabp Anti-Moon-Tag) MEVQLVESGGGLVQPGGSLRLSCAASGSISSVDVMSWYRQAPGKQRELVAFITDRGRTNYKVSVKGRFTISRDNSKNMVYLQMNSLKPEDTADYLCRAESRTSWSSPSPLDVWGRGTQVTVSSGGTGGSVEAFCATWKLTNSQNFDEYMKALGVGFATRQVGNVTKPTVIISQEGDKVVIRTLSTFKNTEISFQLGEEFDETTADDRNCKSVVSLDGDKLVHIQKWDGKETNFVREIKDGKMVMTLTFGDVVAVRHYEKA",binding result,[3],binds
"BFabp-FLAG (other, Purified over the FLAG tag) VEAFCATWKLTNSQNFDEYMKALGVGFATRQVGNVTKPTVIISQEGDKVVIRTLSTFKNTEISFQLGEEFDETTADDRNCKSVVSLDGDKLVHIQKWDGKETNFVREIKDGKMVMTLTFGDVVAVRHYEKAGSGDYKDDDDK",binding result,[4],binds
